# Results: IntAct's records for PubMed 19318624
# B1: Glycogen accumulation regulator GarA (Mycobacterium tuberculosis (strain ATCC 25618 / P9WJA9 (parent)
# chain: MTDMNPDIEKDQTSDEVTVETTSVFRADFLSELDAPAQAGTESAVSGVEGLPPGSALLVVKRGPNAGSRFLLDQAITSAGRHPDSDIFLDDVTVSRRHAEFRLENNEFNVVDVGSLNGTYVNREPVDSAVLANGDEVQIGKFRLVFLTGPKQGEDDGSTGGP
# B2: Glycogen accumulation regulator GarA (Mycobacterium tuberculosis (strain ATCC 25618 / P9WJA9 (parent)
# chain: B1 chain
# partner: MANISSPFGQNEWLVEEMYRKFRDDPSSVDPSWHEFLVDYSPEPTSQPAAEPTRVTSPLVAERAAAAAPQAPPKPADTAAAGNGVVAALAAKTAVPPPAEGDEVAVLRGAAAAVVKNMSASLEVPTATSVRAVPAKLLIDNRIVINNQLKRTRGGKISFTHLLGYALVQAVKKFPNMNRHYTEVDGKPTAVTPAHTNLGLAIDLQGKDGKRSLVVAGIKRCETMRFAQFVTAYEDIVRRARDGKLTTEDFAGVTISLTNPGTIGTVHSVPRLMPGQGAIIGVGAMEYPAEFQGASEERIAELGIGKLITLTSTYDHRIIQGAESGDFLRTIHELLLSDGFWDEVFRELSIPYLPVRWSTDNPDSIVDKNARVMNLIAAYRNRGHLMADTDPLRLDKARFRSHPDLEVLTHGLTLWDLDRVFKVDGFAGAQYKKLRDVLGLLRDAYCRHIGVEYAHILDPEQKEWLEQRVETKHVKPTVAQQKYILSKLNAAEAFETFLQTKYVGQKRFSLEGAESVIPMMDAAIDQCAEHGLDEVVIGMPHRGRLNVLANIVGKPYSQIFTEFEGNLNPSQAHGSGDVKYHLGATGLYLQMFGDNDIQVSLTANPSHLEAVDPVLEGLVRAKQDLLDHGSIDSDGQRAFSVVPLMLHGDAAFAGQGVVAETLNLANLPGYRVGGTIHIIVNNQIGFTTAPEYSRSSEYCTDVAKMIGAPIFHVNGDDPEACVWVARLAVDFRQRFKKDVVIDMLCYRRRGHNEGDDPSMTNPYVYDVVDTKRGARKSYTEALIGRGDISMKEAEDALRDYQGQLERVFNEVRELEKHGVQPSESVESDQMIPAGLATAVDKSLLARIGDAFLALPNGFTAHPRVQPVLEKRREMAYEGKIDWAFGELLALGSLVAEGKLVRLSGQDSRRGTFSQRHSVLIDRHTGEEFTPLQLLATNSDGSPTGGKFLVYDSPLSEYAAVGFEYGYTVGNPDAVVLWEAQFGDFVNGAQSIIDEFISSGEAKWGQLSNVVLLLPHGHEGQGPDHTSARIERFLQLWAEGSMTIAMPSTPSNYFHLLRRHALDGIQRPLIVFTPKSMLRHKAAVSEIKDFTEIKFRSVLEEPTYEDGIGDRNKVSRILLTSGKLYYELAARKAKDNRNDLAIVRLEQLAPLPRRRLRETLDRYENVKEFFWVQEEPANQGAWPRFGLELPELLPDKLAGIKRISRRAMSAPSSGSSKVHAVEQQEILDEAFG
# Variants of: B1
# Conditions: with dhe2_myctu gdh
row,Variant,effect of a mutation on the interaction
1,R143E,disrupting interaction
2,S95A,decreasing interaction
3,K141E,disrupting interaction

# Variants of: B1
# Conditions: with gltb_myctu gltB
row,Variant,effect of a mutation on the interaction
1,S95A,disrupting interaction
2,N117A,disrupting interaction
3,K141E,disrupting interaction

# Variants of: B1
# Conditions: with dhe2_myctu gdh
# Remark: another data set of the same source
row,Variant,effect of a mutation on the interaction
1,N117A,decreasing interaction

# Variants of: B2
# Conditions: with kgd_myctu kgd
row,Variant,effect of a mutation on the interaction
1,K141E,disrupting interaction
2,R143E,disrupting interaction
3,N117A,disrupting interaction
